Experimental data: US20210054076A1 (Chugai, published 2021)
Positions count from the first letter of the chain named.

Assays:
human CLDN6 [1] = molecular target: T1, human CLDN6 (human, UniProt P56747 1-220); assay: cell-based or functional assay
T1 sequence: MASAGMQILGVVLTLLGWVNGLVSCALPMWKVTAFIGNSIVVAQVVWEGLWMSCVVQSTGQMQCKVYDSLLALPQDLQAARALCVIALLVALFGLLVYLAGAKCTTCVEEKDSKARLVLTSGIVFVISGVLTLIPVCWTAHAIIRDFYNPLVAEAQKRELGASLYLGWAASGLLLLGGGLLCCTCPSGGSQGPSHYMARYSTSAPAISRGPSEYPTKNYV

human CLDN6 [2] = molecular target: T1, human CLDN6; assay: cell-based or functional assay; remark: listed apart in the source
mouse CLDN4 = molecular target: T2, mouse CLDN4 (mouse, UniProt O35054 1-210); assay: FACS on Ba/F3 transfectant, antibody 20 micro g/ml, FITC anti-human IgG
T2 construct: whole, on cells; also called mCLDN4; BaF3_mCLDN4
T2 sequence (looked up): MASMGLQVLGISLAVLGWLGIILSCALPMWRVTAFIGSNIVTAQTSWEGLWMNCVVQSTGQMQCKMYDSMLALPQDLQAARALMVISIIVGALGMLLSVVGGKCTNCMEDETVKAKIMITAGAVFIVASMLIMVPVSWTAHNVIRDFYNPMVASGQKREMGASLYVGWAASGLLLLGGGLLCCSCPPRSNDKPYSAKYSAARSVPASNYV

human CLDN6 [3] = molecular target: T1, human CLDN6; assay: as above
hCLDN6(Q156L) = molecular target: T3, hCLDN6(Q156L) (human, UniProt P56747 1-220); assay: as above
T3 construct: Stably expressed on Ba/F3 cells; also called human CLDN6 mutant; BaF3_hCLDN6(Q156L)
T3 chain: T1 sequence with Q156L

- EC50 (read off the curve), Jurkat/NFAT-RE luciferase reporter, target cells ABC-1 (human CLDN6 [1]): ~0.06 nM
- EC50 (read off the curve), Jurkat/NFAT-RE luciferase reporter, target cells PA-1 (human CLDN6 [2]): ~0.04 nM
- Geo-mean value of FACS (mouse CLDN4): 23
- Geo-mean value of FACS (human CLDN6 [3]): 3480
- Geo-mean value of FACS (hCLDN6(Q156L)): 80
B1: CH04/CD3 (bispecific antibody, human IgG1, kappa, N297A)
heavy 1: EVQLQQSGPELVKPGASMKISCKASGYSFTGYTMNWVKQSHGKNLEWIGLINPYNGGTIYNQKFKGKATLTVDKSSSTAYMELLSLTSEDSAVYYCARDYGFVLDYWGQGTTLTVSSASTKGPSVFPLAPSSKSTSGGTAALGCLVKDYFPEPVTVSWNSGALTSGVHTFPAVLQSSGLYSLSSVVTVPSSSLGTQTYICNVNHKPSNTKVDKKVEPKSCDKTHTCPPCPAPELRGGPKVFLFPPKPKDTLMISRTPEVTCVVVDVSHEDPEVKFNWYVDGVEVHNAKTKPREEQYASTYRVVSVLTVLHQDWLNGKEYKCKVSNKALPAPIEKTISKAKGQPREPQVYTLPPSREEMTKNQVSLTCLVKGFYPSDIAVEWESNGQPENNYKTTPPYLDSDGSFFLYSKLTVDKSRWQQGNVFSCSVMHEALHNHYTQESLSLSP
light 1: DIVLTQSPSIMSVSPGEKVTITCSASSSVSYMHWFQQKPGTSPKLCIYSTSNLASGVPARFSGRGSGTSYSLTISRVAAEDAATYYCQQRSNYPPWTFGGGTKLEIKRTVAAPSVFIFPPSDEQLKSGTASVVCLLNNFYPREAKVQWKVDNALQSGNSQESVTEQDSKDSTYSLSSTLTLSKADYEKHKVYACEVTHQGLSSPVTKSFNRGEC
heavy 2: QVQLVESGGGVVQPGGSLRLSCAASGFTFSNAWMHWVRQAPGKGLEWVAQIKDKSQNYATYVAESVKGRFTISRADSKNSIYLQMNSLKTEDTAVYYCRYVHYAAGYGVDIWGQGTTVTVSSASTKGPSVFPLAPSSKSTSGGTAALGCLVKDYFPEPVTVSWNSGALTSGVHTFPAVLQSSGLYSLSSVVTVPSSSLGTQTYICNVNHKPSNTKVDKKVEPKSCDKTHTCPPCPAPELRGGPKVFLFPPKPKDTLMISRTPEVTCVVVDVSHEDPEVKFNWYVDGVEVHNAKTKPREEQYASTYRVVSVLTVLHQDWLNGKEYKCKVSNKALPAPIEKTISKAKGQPREPQVYTLPPSRKEMTKNQVSLTCLVKGFYPSDIAVEWESNGQPENNYKTTPPYLDSDGSFFLYSKLTVDKSRWQQGNVFSCSVMHEALHNHYTQKSLSLSP
light 2: DIVMTQSPLSLPVTPGEPASISCRSSQPLVHSNRNTYLHWYQQKPGQAPRLLIYKVSNRFSGVPDRFSGSGSGTDFTLKISRVEAEDVGVYYCGQGTQVPYTFGQGTKLEIKRTVAAPSVFIFPPSDEQLKSGTASVVCLLNNFYPREAKVQWKVDNALQSGNSQESVTEQDSKDSTYSLSSTLTLSKADYEKHKVYACEVTHQGLSSPVTKSFNRGEC
notes: Made by Fab arm exchange of the bivalent anti-CLDN6 antibody CH04 with the bivalent anti-CD3 antibody CD3-1; human IgG1 constant region; One anti-CLDN6 arm and one anti-CD3 arm; also called CLDN6-TRAB; CLDN6-targeted T-cell redirecting bispecific antibody
